Experimental data taken from patent publication US10830762.

Target: human CRBN (amino acids 40-442) in complex with full length human DDB1 (human) (UniProt Q96SW2)
Assay: SPR (Biacore T200): GST-GSPT1 domains 2 and 3 captured by anti-GST antibody, CRBN-DDB1 as analyte, 10 uM Compound C; data not shown

human CRBN (amino acids 40-442) in complex with full length human DDB1 (human), sequence (Q96SW2 40-442, chain 1 of 2): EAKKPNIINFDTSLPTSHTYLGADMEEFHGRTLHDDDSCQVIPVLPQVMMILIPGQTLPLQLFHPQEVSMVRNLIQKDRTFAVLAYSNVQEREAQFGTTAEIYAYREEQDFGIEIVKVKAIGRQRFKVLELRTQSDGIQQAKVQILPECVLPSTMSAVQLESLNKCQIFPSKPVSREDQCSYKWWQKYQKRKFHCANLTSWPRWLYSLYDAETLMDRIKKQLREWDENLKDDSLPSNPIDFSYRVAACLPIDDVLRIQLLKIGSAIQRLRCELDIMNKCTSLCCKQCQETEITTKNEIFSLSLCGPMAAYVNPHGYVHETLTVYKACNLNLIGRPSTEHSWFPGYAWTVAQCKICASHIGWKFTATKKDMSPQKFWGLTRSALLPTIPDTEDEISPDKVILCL
human CRBN (amino acids 40-442) in complex with full length human DDB1 (human), sequence (Q16531 2-1140, chain 2 of 2, further chain): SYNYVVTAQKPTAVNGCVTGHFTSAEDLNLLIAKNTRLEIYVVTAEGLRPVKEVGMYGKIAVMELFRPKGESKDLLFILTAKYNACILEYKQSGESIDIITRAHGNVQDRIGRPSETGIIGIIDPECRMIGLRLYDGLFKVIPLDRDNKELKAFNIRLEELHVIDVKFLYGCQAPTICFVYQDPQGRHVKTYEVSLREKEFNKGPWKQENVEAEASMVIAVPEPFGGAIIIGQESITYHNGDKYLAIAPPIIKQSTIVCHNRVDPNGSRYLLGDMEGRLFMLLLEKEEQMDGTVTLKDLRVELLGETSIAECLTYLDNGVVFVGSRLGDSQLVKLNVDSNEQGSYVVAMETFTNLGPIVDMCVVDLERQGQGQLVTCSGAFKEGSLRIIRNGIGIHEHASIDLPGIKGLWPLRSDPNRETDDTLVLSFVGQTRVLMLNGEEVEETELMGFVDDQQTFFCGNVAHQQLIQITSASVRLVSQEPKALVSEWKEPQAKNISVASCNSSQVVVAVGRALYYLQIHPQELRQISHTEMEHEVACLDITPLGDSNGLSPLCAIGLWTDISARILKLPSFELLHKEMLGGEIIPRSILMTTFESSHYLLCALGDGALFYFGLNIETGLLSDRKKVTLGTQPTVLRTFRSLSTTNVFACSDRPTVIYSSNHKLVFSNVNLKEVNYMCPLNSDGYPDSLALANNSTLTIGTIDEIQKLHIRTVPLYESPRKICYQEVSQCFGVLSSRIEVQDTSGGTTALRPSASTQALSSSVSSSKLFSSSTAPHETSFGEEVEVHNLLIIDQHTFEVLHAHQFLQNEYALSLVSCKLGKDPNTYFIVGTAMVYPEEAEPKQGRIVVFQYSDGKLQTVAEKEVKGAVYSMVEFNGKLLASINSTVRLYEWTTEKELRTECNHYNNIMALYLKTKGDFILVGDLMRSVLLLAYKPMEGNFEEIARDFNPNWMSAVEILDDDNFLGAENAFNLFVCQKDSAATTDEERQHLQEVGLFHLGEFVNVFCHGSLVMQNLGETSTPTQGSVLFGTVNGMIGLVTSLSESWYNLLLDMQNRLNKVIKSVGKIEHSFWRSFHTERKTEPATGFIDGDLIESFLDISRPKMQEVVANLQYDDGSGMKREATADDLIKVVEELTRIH

Kd: 400 nM
Substance: GST-GSPT1-domain 2 and 3 (from UniProt P15170 437-633)
